Molecular target: T1, Aβ42 peptide (amyloid β peptide 1-42), soluble (UniProt P05067 672-713)
T1 construct: domain: Aβ1-42; also called Aβ1-42; soluble Aβ42 peptide
Test: ELISA; tat-VL coated, Aβ42 peptide at 100 ng/well, anti-Aβ42 monoclonal antibody detection

T1 sequence (P05067 672-713 limits assumed): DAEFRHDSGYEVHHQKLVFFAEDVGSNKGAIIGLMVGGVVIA

B1: tat peptide-fused human-derived anti-Aβ42 peptide VL chain (other)
chain: MGYGRKKRRQRRRGDIVMTQSPDSLAVSLGERATINCKSSQSVIHNSNVKNCLAWYQQKLGQPPNLLIYWASTRESGVPDRFSGSGSGTDFTLKISRVEAEDVGVYYCMQSIQLPRTFGQGTKVEIKR
notes: also called tat-VL chain; tat peptide-fused VL chain
binding result: binds
